Experimental findings from patent publication US20180250426A1 are described below.

The test addresses CA1.CD2-P40 (CA1.CD2 PEGylated with P40) (rat) (UniProt P08921). Nature of the test: Western blot, CA1.CD2 PEGylated with P40. (Immunoblotting shows a protein as a band on a membrane.)

CA1.CD2-P40 (CA1.CD2 PEGylated with P40) (rat), sequence (P08921 23-121 limits assumed): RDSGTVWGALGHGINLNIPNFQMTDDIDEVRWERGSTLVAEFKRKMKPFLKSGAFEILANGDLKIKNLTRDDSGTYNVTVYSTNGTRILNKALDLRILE

On to OX34 antibody, for which the decrease of binding against unmodified CA1.CD2 was determined as 50%.
